Measured values: article PMC7966918 (Cell Research, 2021)

B1: P5A-2G9 (full-length IgG) (antibody, V domains shown)
VH: QVQLVESGGGVVQPGRSLRLSCAASGFTFSSYGMHWVRQAPGKGLEWVAVIWYDGSNKYYADSVKGRFTISRDNSKNTLYLQMNSLRAEDTAVYYCARWFHTGGYFDYWGQGTLVTVSS
VL: QPVLTQPPSSSASPGESARLTCTLPSDINVSSYNIYWYQQKPGSPPRYLLYYYSDSDKGQGSGVPSRFSGSKDASANTGILLISGLQSEDEADYYCMIWPSNALYVFGTGTKVTVL
B2: P2B-1A10 (full-length IgG) (antibody, V domains shown)
VH: EVQLVESGGGLIQPGGSLRLSCAASGFTVSSNYMSWVRQAPGKGLEWVSVIYSGGSTYYADSVKGRFTISRDNSKNTLYLQMNSLRAEDTAVYYCAREGPKSITGTAFDIWGQGTIVTVSS
VL: DIQMTQSPSSLSASVGDRVTITCQASQDISNYFNWYQQKPGKAPKLLIYDASNLETGVPSRFSGSGSGTDFTFTISSLQPEDIATYYCQQYDNLPMYTFGQGTKLEIK

Target: T1, SARS-CoV-2 S protein extracellular domain (S-ECD, 1–1208 aa) (SARS-CoV-2, Wuhan-Hu-1 (GenBank …, UniProt P0DTC2, proline substitution at residue 986 | proline substitution at residue 987 | …))
T1 construct: also called S trimer; trimeric S protein
Assay: cryo-EM structure
Conditions: both partners purified

Binder	binding result
B1	binds
B2	binds
